Test results from patent US20220056146A1 (TASRIF PHARMACEUTICAL, published 2022).
Where a chain is given by its changes, count along the chain named. In names and notes the source's numbering stands.

How the values were obtained:
[1] = target: T1, human CD155 (poliovirus receptor, PVR) on cells (U87/U87MG, HAP1) (human, UniProt P15151 21-417); experiment: cell binding on U-87 cells
T1 construct: whole, on cells
T1 sequence (looked up): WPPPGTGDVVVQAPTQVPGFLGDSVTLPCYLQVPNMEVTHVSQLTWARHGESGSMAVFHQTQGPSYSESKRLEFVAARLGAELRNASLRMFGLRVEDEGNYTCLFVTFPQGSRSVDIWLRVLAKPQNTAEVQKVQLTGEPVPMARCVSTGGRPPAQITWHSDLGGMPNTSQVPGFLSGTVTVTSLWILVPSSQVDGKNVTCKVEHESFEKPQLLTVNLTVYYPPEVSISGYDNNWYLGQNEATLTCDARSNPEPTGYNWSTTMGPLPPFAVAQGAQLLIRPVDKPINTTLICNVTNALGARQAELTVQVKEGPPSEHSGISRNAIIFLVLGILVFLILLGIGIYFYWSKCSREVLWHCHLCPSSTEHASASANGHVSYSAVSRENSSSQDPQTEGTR

[2] = target: T2, African green monkey PVR (CD 155) on Vero cells (African green monkey); experiment: cell binding on Vero cells
T2 construct: whole, on cells

[3] = target: T1, human CD155 (poliovirus receptor, PVR) …; experiment: cell binding on HAP-1 cells
[4] = target: T3, poliovirus receptor (PVR, CD 155), form not stated (UniProt P15151 21-343, limits assumed); experiment: surface plasmon resonance (Biacore)
T3 sequence (looked up): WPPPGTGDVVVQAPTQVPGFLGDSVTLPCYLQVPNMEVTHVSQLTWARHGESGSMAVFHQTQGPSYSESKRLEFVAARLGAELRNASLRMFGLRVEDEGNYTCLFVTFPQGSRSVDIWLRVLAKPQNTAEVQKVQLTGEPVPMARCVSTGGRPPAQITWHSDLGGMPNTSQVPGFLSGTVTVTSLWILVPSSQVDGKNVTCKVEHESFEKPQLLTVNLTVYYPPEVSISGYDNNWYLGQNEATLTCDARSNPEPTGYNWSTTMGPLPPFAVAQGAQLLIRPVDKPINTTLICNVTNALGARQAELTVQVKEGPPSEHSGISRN

[5] = target: T1, human CD155 (poliovirus receptor, PVR) …; experiment: in vivo fluorescence imaging of mice with U87MG tumors, 72 hours after injection
Method: Ab825-VT680 conjugate binds and accumulates in U87MG tumors In Vivo. The control mice were either untreated or treated with VT 680 dye alone.

T2 sequence (P32506 21-417): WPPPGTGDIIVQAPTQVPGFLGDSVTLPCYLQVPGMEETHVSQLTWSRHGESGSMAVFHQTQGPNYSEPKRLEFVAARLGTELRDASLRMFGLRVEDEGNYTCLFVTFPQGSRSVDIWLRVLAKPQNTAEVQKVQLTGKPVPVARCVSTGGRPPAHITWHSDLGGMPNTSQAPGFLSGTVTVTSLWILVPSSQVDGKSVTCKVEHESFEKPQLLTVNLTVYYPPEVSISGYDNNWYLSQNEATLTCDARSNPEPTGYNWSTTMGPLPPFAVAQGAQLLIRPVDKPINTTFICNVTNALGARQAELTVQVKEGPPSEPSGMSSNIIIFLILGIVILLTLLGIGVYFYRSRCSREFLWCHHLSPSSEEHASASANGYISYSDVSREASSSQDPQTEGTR

B1: Ab825 (VH0/VK0), human IgG1 chimeric antibody (antibody, V domains shown)
VH: EVQLQQSGPELVKPGASVKISCKTSGYTFTEYTMHWVKQSHGKSLEWIGGIHPNNGDTSYNQRFKGKATLTVDKSSSTAYMELRSLTSEDSAVYYCARWTGDFDYWGQGTTLTVST
VL: DIVMTQSPKFMSTSVGDRVSVTCKASQNVGTNVAWYQQKPGQSPKALIYSASYRYSGVPDRFTGSGSGTDFTLTISNVQSEDLAEYFCQQYNSYPYTFGGGTKLEIK
notes: Murine variable regions in a human IgG1 chimeric antibody, derived from D171
Which results are given for B1?
EC50 [1]: 0.0869 µg/mL; EC50 [2]: 0.086 µg/mL; EC50 [3]: 0.0487 µg/mL

B2: VH4 N54S D56E / VK3 N92E (antibody, V domains shown)
VH: EVQLVQSGSELKKPGASVKVSCKTSGYTFTEYTMHWVRQPHGKGLEWIGGIHPNSGETSYNQRFKGRVTITVDKSTSTAYMELSSLRSEDTAVYYCARWTGDFDYWGQGTLVTVSS
VL: DIQMTQSPSAMSASVGDRVTITCKASQNVGTNVAWYQQKPGQPPKALIYSASYRYSGVPDRFSGSGSGTDFTLTISSLQAEDLAEYFCQQYESYPYTFGQGTKLEIK
notes: Humanized variant of Ab825; also called antibody (vi)
What does the source list for B2?
EC50 [1]: 0.585 µg/mL; EC50 [2]: 0.236 µg/mL; EC50 [3]: 0.0984 µg/mL

B3: VH3 N54Q D56E / VK2 N92E (antibody, V domains shown)
VH: B2 VH with V20I, S55Q, I70L
VL: B2 VL with Q3V, S63T
notes: Humanized variant of Ab825; also called antibody (i)
B3 was tested. Which EC50 [1] did it give?
The EC50 was 0.272 µg/mL.

What about the EC50 [2] of the same binder?
The EC50 was 0.226 µg/mL.

What about the EC50 [3] of the same binder?
Its EC50 is 0.168 µg/mL.

B4: VH3 N54Q D56E / VK3 N92E (antibody, V domains shown)
VH: B2 VH with V20I, S55Q, I70L
VL: B2 VL
notes: Humanized variant of Ab825; also called antibody (iii)
For B4, which EC50 [1] is on record?
The EC50 was 0.284 µg/mL.

And the EC50 [2]?
Its EC50 is 0.273 µg/mL.

What about the EC50 [3] of the same binder?
The EC50 was 0.115 µg/mL.

B5: VH3 N54S D56G / VK2 N92Q (antibody, V domains shown)
VH: B2 VH with V20I, E57G, I70L
VL: B2 VL with Q3V, S63T, E92Q
notes: Humanized variant of Ab825; also called antibody (ii); Sample 2
B5 was tested. Which EC50 [1] did it give?
Its EC50 is 0.069 µg/mL.

And the EC50 [2]?
Its EC50 is 0.0615 µg/mL.

What about the EC50 [3] of the same binder?
The EC50 was 0.0383 µg/mL.

B6: VH3 N54S D56G / VK3 N92Q (antibody, V domains shown)
VH: B2 VH with V20I, E57G, I70L
VL: B2 VL with E92Q
notes: Humanized variant of Ab825; also called antibody (iv); Sample 3
How did the EC50 [1] turn out when B6 was run?
Its EC50 is 0.0778 µg/mL.

And the EC50 [2]?
Its EC50 is 0.0561 µg/mL.

And the EC50 [3]?
The EC50 was 0.0381 µg/mL.

B7: VH4 N54Q D56E / VK3 N92E (antibody, V domains shown)
VH: B2 VH with S55Q
VL: B2 VL
notes: Humanized variant of Ab825; also called antibody (v)
For B7, which EC50 [1] is on record?
Its EC50 is 0.551 µg/mL.

And the EC50 [2]?
Its EC50 is 0.629 µg/mL.

And the EC50 [3]?
The EC50 was 0.097 µg/mL.

B8: VH4 N54Q D56E / VK3 N92Q (antibody, V domains shown)
VH: B2 VH with S55Q
VL: B2 VL with E92Q
notes: Humanized variant of Ab825; also called antibody (viii)
How did the EC50 [1] turn out when B8 was run?
Its EC50 is 0.523 µg/mL.

What about the EC50 [2] of the same binder?
Its EC50 is 0.48 µg/mL.

And the EC50 [3]?
The EC50 was 0.108 µg/mL.

B9: VH4 N54S D56G / VK3 N92E (antibody, V domains shown)
VH: B2 VH with E57G
VL: B2 VL
notes: Humanized variant of Ab825; also called antibody (vii)
With B9 as the binder, how does the EC50 [1] read?
Its EC50 is 0.191 µg/mL.

And the EC50 [2]?
The EC50 was 0.108 µg/mL.

And the EC50 [3]?
The EC50 was 0.0563 µg/mL.

B10: VH4 N54S D56G / VK3 N92Q (antibody, V domains shown)
VH: B2 VH with E57G
VL: B2 VL with E92Q
notes: Humanized variant of Ab825; also called antibody (ix); Sample 4
For B10, which EC50 [1] is on record?
Its EC50 is 0.0932 µg/mL.

And the EC50 [2]?
The EC50 was 0.0869 µg/mL.

And the EC50 [3]?
Its EC50 is 0.0446 µg/mL.

B11: monoclonal antibody defined by SEQ ID 23 (LCVR) and SEQ ID 25 (HCVR) with a IgG4 (S241P) (antibody, V domains shown)
VH: B2 VH with E57G
VL: B2 VL with E92Q
notes: also called VH4 N54S D56G / Vk3 N92Q IgG4 (S241P)
With B11 as the binder, how does the Kd [4] read?
Its Kd is 0.3 nM.

B12: Ab825-VT680 conjugate (antibody, V domains shown)
VH: B1 VH
VL: B1 VL
notes: Ab825 conjugated to the fluorophore VT680; Neither the chain nor the site of conjugation is stated
Does B12 bind [5]?
Result: binds
